Experiment: yeast display, Sf9 membrane polyspecificity reagent, FACS + sequencing; frameworks hold sequencing errors
Method in brief: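 Polyreactivity labels are assigned by the sorting gate from which each nanobody was recovered. The gates were low and high (top ~1%), set on anti-HA fluorescence for expression and streptavidin fluorescence for reagent binding. Before sorting, galactose-induced (36–48 hours) yeast display cells were stained for 1 hour at 4 °C with 10% biotinylated, detergent-solubilized Sf9 membrane reagent.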

Sequence	polyreactivity (PSR sort gate)
QVQLVESGGGLVQAGGSIRLSCAASGSIFEVNAMGWYRQAPGKERELVAGISNADSTNYADSVKGRFTISRDNAKNTVYLQMNSLKPEDTAVYYCATDLYRDPPKDLLGPEYDYWGQGTQVTVSS	low polyreactivity
QVQLVESGGGLVQAGGSIRLSCAASGSIFLGYAMGSYRQATGKETELFAAISSGGTRTYYADSVKGRFTITRDNAKNTVYLQMNCLKPEDTAVYYCSARYIPIQYPSYRTWGGYSWGQGTQVTVSS	high polyreactivity
QVQLVESGGGLVQAGGSIRLSCAASGSTFFQYAMGWYRQAPGKERELVAAISSRGGRTYYADSVKGSFTISRDNAKNTVYLQMNSLKPEDTAVYYCAVDHLTRSGDGEYWGQGTQVTVSS	high polyreactivity
QVQLVESGGGLVQAGGSIRLSCAASGSTFKTYVMGWYRQAPGKERELVAAISFSDGTTYYADSVKGRFTISRDNAKNTVYLQMNSLKPEDTAVYYCAAEGYQSQYDYWGQGTQVTVSS	high polyreactivity
QVQLVESGGGLVQAGGSIRLSCAASGSTFYSYAMGWYRQATGKERELVAAISSGGSTNYADSVKGRFTISRDNAKNTVYLQMNSLKPEDTAVYYCAVDYPVIVYQRGYWGQGTQVTVSS	low polyreactivity
QVQLVESGGGLVQAGGSIRLSCAASGYSFNGYAMGWYRQAPGKEREFVAAISWSGGSTYYADSVKGRFTISRDNAKNTVYLQMNSLKPEDTAVYYCAKRRGGGYDYWGQGTQVTVSS	low polyreactivity
QVQLVESGGGLVQAGGSIRLSCDHSGRNLYRNSMGWYRQAPEKERELVARITSSGASTYYADSVKGRFTISRDNAKNTVTIQMNSLKQEYTAVYYCAAQYLSRRYGPYYTYNYRGQGTQVTVSS	high polyreactivity
QVQLVESGGGLVQAGGSIRLSCSASGNIFSDNAMGWYRQAPGKERELGAAITSGGSTNYADSVNGRFTISRDNAKNTVYLQMNSLKPEDTAVYYCAADRGFYPSLWDYDYWGQGTQVTVSS	low polyreactivity
QVQLVESGGGLVQAGGSIRLTCAASGGTFGRNAMGWYRQAPGKERELVATITRRGGSTYYADSVKGRFTISRDNAKTSVYLQMNSLKAEDTAVYYCAARDVYRGGLFDYWGQGTQVTVSS	high polyreactivity
QVQLVESGGGLVQAGGSLGISCAACGSIFSVNAMGWFRQAPGKERELVAGITISGGRTYYADSVKGRFTISRDNAKNTVYLQKNSLKPEDTAVYYCAAYVDPAYYYWGPGTQVTVSS	low polyreactivity
QVQLVESGGGLVQAGGSLGLSCAASGFIFSSNAMGWYRQARGKERELVAAITSGGGRTYSADSVKRRFTISRDNAKNTVYLQKNSLKPEDTAVYYCNAEQWQSSEYGEWSKRDYWGQGTQVTVSS	low polyreactivity
QVQLVESGGGLVQAGGSLGLSCAASGFSFDRNAMGWYRQAPGKERGLVAAISSSGGRTYYPDSVKGRFTISRDYAKKTVYLQMNSLKPDDTAVYYCAAKLSRRYYYWGQGTQVTVSS	high polyreactivity
QVQLVESGGGLVQAGGSLGLSCAASGFTFTYYAMGWYRQAPGKERELVASISWRGGSTYADSVKGRFTISRDNAQNTVYLQMNSLTPEDTAVYYCAADGYSYGNYIYDYWGQGTQVTVSS	low polyreactivity
QVQLVESGGGLVQAGGSLGLSCAASGFTFYYYAMGWYRQAPGKERELVAIRFRGGNTYYADSVKGRFTISRDNAENTVYLQMNSLKPEDTAVYYCNADDLGSTYVDYDYWGQGTQVTVSS	low polyreactivity
QVQLVESGGGLVQAGGSLGLSCAASGSFFYQNAMGWYRQAPGKDREWVAAISRSGGSTYYADSVMGRFTISRDNAKISVDEQMNSLQPEDTPVYYCAARNSRQGSYSRDFWGQGTQVTVSS	high polyreactivity
QVQLVESGGGLVQAGGSLGLSCAASGSIFEPYVMGWYRPAPGKERELVAAISESGDTTYYADSVKGRFTISRDNAKNTVYLQRNSLKPEDTAVYYCNAEDPSIDGWWRVGEYDYWGQGTQVTVSS	low polyreactivity
QVQLVESGGGLVQAGGSLGLSCAASGSTFGPNAMGWYRQAPGKERELVARITDSGGSTYYADSVKGRFTISRDNAKNTVDLQMNSLKQDDTAVYYCAAEVYLLSRYYTPAYDYWGQGTLVTVSS	low polyreactivity
QVQLVESGGGLVQAGGSLHLSCAASGRTFVWYAMGWYRQAPGKERELVAAISWSGTSTYYADSVKGRFTNSRDYAKYNVYLQMNSLKPEDTAVYYCYEKYYYWGQGTQVTVSS	high polyreactivity
QVQLVESGGGLVQAGGSLILSCAASYAMGWYRQAPGKERELVATIKSGGVSTYYADSVKGRFTISRDNAKNTVYLQMNCLKPEDTAVYDCAANASHSTSADYDYWGQGTQVTVSS	low polyreactivity
QVQLVESGGGLVQAGGSLLLRCAASGRTFKNYAKGWSRQAPGKERELVAAISSGGGRTKYADSEKGRFTISRDNAKNSVYLQLNSLKPDDTAVYYCAAAFYYRDDYWGQGSQVTVSS	high polyreactivity
QVQLVESGGGLVQAGGSLLLSCAAAGSIFRTYAMGWYRQAPGKERELVAAISRSGSSTYYADSVKGRFTISRDNAKNTVYFQMNSLKPEDTAVYYCAALVRKYGVDYWGQGTQVTVSS	high polyreactivity
QVQLVESGGGLVQAGGSLLLSCAASGFTFKCYAMGWYRQAPGKERELVAAISRSGSSTYYADSVKVRFTISRDTAKNTVYLQMNSLKPEDTAVYYCAAYYRTWGGYWGQGTQVTVSS	high polyreactivity

Sequence	polyreactivity (PSR sort gate)
QVQLVESGGGLVQAGGSLLLSCAASGFTFRYYAMGWNRQAPGKERELVAAINSGGSTNYADSVKGLFTISRDNAKNTVYLQMNSLKPEDTAVYYCAKRGRRGIEYLGSAEMDYWGEGTQVTVSS	low polyreactivity
QVQLVESGGGLVQAGGSLLLSCAASGIIFSSYVMGWYRQAHGKERELVAAISKSGARPSYADSVKGRFTISRDNAKNTVYLQMNSLKPEDTAVYYCAAAWHTAYWVGSDSQGGGYWGQGTQVTVSS	low polyreactivity
QVQLVESGGGLVQAGGSLLLSCAASGLTFERYVMVWYRQAPGKERELVSSISRSGSTYYADSVKGRFTISRDNAKNTVYLQMNSLKPEDTAVYYCNADRFWFHWVYSRYHYDYWGQGTQVTVSS	high polyreactivity
QVQLVESGGGLVQAGGSLLLSCAASGLTFTDNAMGWSRQAPGKERELVAAISQSGGRTFYADSVKGRFTISRDNAKNTVYLQINSLKPEDPAVYYCNSRRGSVAKYGYLGQGTQVTVSS	high polyreactivity
QVQLVESGGGLVQAGGSLLLSCAASGRIFIDYAMGLYRQAPGKERELVATISESGGTTYYADSVKGRFTISRDNGKNTVYLQMNSLKPEDTAVYYCAAKRLCRPYDYWGQGTQVTVSS	low polyreactivity
QVQLVESGGGLVQAGGSLLLSCAASGRIFRSYAMGWYRQAPGKERELVAAISSGGSTKYADSVKGRFTISRDNAKNTVYLQMNSLKPVDTAVYYCAASRTRLGTSGTSYGAAYDYWGQGTQVTVSS	high polyreactivity
QVQLVESGGGLVQAGGSLLLSCAASGRIINYYAMGWYRQAPGKEREFVAAITRSGGRTYYADSVKGRFTISRDNAKNTVYLQMNSLKPEDTAVYYCAAPYGTYAYDYWGQGTQVTVSS	high polyreactivity
QVQLVESGGGLVQAGGSLLLSCAASGRTFTGYAMGGYRQAPVKERELVAAISASGGSTYYADSVKGRFTISRDNAKNTVYLQMNSLIPEDTAVYYCAAETWYSVLWEEGYDYWGQGTQVTVSS	low polyreactivity
QVQLVESGGGLVQAGGSLLLSCAASGSIFYNYAMGWYRQAPGKERELVAAISQSGGSTRYADSVKGRFTISRDNAKNTVYLQMNSLKPEDTAVYYCAASRRKGQGSAGFGYWGQGTQVTVSS	high polyreactivity
QVQLVESGGGLVQAGGSLLLSCAASGSTFAWYAMGWNRQAPGKERELVAAISRTGRTYYADSVKGRFTISRDNAKNTVYLEMNSLKPEDTAVYYCAARIERFYRDQRYDYWGQGTQVTVSS	high polyreactivity
QVQLVESGGGLVQAGGSLLLSCAASGSTFGSYDMGWYRQAPGKERELVATISTSGSGTYYADSVKGRFTISRDNSKNTVYLQMNSLKPEDTAFYDCAKDPADGRRFRYGYWGQGTQVTVSS	low polyreactivity
QVQLVESGGGLVQAGGSLLLSCAASGSTFGYNTMGWYRQAPGKERELVAAINYSGGRTYYADSVKGRFTISRDYAMNTVYLQMNSQKPEDTAVYYCNALSYPSRVYDAYDYWGQGTQVTVSS	high polyreactivity
QVQLVESGGGLVQAGGSLLLSCAPSGITFVWYAMVWYRQAPGKERELVAAISRGGSTYYADSVKGRFTISRDNAKNTVYLQMNSLKPVDTAVYYCAARAPYIQQSVHISPRYYYSGQGTQVTVSS	high polyreactivity
QVQLVESGGGLVQAGGSLLLSSAASGFTFGNNDMGWYRKSHGKERELVDAITKRGSSTYYADSVKGRFTISRDNAKNTVYLQMNSLKPEDTAVYHCAASWLGASGIRYDYWGQGTLVTVSS	high polyreactivity
QVQLVESGGGLVQAGGSLLLSSAASGSTLVYYTMGRYIPAPGKERELVAGITGSGGSTYYADSVKGRFTISRDNAKNTVYLQMNILIPEDTAVYYCAKRGFRSYHYIRGVYYWGQGTQVTVSS	low polyreactivity
QVQLVESGGGLVQAGGSLPLSCAASGFIFPGYAMGWYRQAPGKERELVAVISSRGGSTKYADSVKGRFTISRDNANYSVYLQMNSLNPEDTAVYYCAAARAPRKYDSWGQGTQVTVSS	high polyreactivity
QVQLVESGGGLVQAGGSLPLSCAASGFIFTSNAMGWYRQAPGKERELVASISGNGGRTNYADSVKGRFTISRDNAKNTVYLQMNSLKPDDTAVYYCAARVRRFLNRVSRYPHDYWGQGTQVTVSS	high polyreactivity
QVQLVESGGGLVQAGGSLPLSCAASGFIYGGNAMGWYRQAPGKERELVAAISKSGGRTYYADSVKGRFTISRDNAKNTVYLQMNSLKPEDTAVYYCAAVPGRTAEDYGEDYWGQGTEVTVSS	high polyreactivity
QVQLVESGGGLVQAGGSLPLSCAASGITFHRYAMGWDRQAPGKERELVAAMSRGASTNYADSVKGRFTISRDNAKNTVYLQMNSLKPEDTAVYYCAARTIGWYSGSRFDYWGQCTQVTVSS	high polyreactivity
QVQLVESGGGLVQAGGSLPLSCAASGITFRYYAMGWYRQAPGKERELVAAITRGGRTNYADSVKGRFTISRDNAKNTVYLQMNSLKPEDTAVYYCATGRDSNFGNSYYYWGQGTQVTVSS	high polyreactivity
QVQLVESGGGLVQAGGSLPLSCAASGRIFNSNAMGWYRQAPGKERELVAAIPISGSTNYADSVKGRFTISRDNAKNTVYFQMNSLKPEDTAVYYCAAQRTSHGRGVNGYVKYGYWGQGTIVTVSS	high polyreactivity

Source: the nanobody polyreactivity screen of Harvey et al. (2022)
